Measured values taken from patent publication US20230287109A1 (INGENIA THERAPEUTICS, published 2023).

B1: PRO593, PEGylated with two 20 kDa linear PEG (Fc fusion)
heavy: EVQLVQSGAEVKKPGASVKVSCKASGYSFTSYWMNWVRQAPGQGLEWMGMIHPSDSETRLNQKFMDRVTMTRDTSTSTVYMELSSLRSEDTAVYYCARGLYGNSWGQGTLVTVSSASTKGPSVFPLAPSSKSTSGGTAALGCLVKDYFPEPVTVSWNSGALTSGVHTFPAVLQSSGLYSLSSVVTVPSSSLGTQTYICNVNHKPSNTKVDKKVEPKSSDKTHTSPPSPAPEAAGGPSVFLFPPKPKDTLMISRTPEVTCVVVDVSHEDPEVKFNWYVDGVEVHNAKTKPREEQYNSTYRVVSVLTVLAQDWLNGKEYKCKVSNKALPAPIEKTISKAKGQPREPQVYTLPPSRDELTKNQVSLTCLVKGFYPSDIAVEWESNGQPENNYKTTPPVLDSDGSFFLYSKLTVDKSRWQQGNVFSCSVMHEALHNHYTQKSLSLSPGKGGGGSGGGGSGGGGSGGGGSSDTGRPFVEMYSEIPEIIHMTEGRELVIPCRVTSPNITVTLKKFPLDTLIPDGKRIIWDSRKGFIISNATYKEIGLLTCEATVNGHLYKTNYLTHRQTNTIIDVVLSPSHGIELSVGEKLVLNCTARTELNVGIDFNWEYPSSKHQHKKLVNRDLKTQSGSEMKKFLSTLTIDGVTRSDQGLYTCAASSGLMTKKNSTFVRVHEKGGSSKCA
light: DIQMTQSPSSLSASVGDRVTITCRASQDIGISLNWYQQEPGKAIKRLIYATSSLDSGVPKRFSGSRSGTEYTLTISSLESEDFADYYCLQYASSPYTFGGGTKLEIKRTVAAPSVFIFPPSDEQLKSGTASVVCLLNNFYPREAKVQWKVDNALQSGNSQESVTEQDSKDSTYSLSSTLTLSKADYEKHKVYACEVTHQGLSSPVTKSFNRGES
modifications: chain 1 pos 676: Cys carrying 20 kDa linear PEG-maleimide, written C (two PEG per antibody, one on each heavy chain).
notes: All interchain disulfide bonds removed
B2: PRO593, PEGylated with two 40 kDa branched PEG (Fc fusion)
heavy: B1 heavy
light: B1 light
modifications: chain 1 pos 676: Cys carrying 40 kDa branched PEG-maleimide, written C (one PEG per heavy chain, two per antibody)

Target: T1, rabbit Tie2 (form not stated) (rabbit)
T1 construct: also called rabbit ortholog of Tie-2
Test: SPR, summary table, column Rabbit Tie2, Kd [M]

Binder	Kd [nM]
B1	< 0.127
B2	< 0.13
